The results in this text go back to doi:10.1101/651463 (bioRxiv, 2019).

In assay [1] the target is C5aR1-βarr1 complex (Homo sapiens (Human). ; Rattus …, UniProt P21730;P29066). Nature of the assay: co-IP.
Assay [2] deals with V2R-βarr1 complex (Homo sapiens (Human). ; Rattus …, UniProt P30518;P29066). Kind of assay: co-IP.

B1: Intrabody30 (scFv, V domains shown)
VH: EVQLVESGGGLVQPGGSLRLSCAASGFNVYSSSIHWVRQAPGKGLEWVASISSYYGYTYYADSVKGRFTISADTSKNTAYLQMNSLRAEDTAVYYCARSRQFWYSGLDYWGQGTLVTVSS
VL: DIQMTQSPSSLSASVGDRVTITCRASQSVSSAVAWYQQKPGKAPKLLIYSASSLYSGVPSRFSGSRSGTDFTLTISSLQPEDFATYYCQQYKYVPVTFGQGTKVEIK
In the case of B1, the binding result in assay [1] and in assay [2] was “binds” in each case.
